Reference: US11760795B2, “Monoclonal antibodies to growth and differentiation factor 15 (GDF-15), and uses thereof for treating cancer cachexia and cancer” (JULIUS-MAXIMILIANS-UNIVERSITÄT WÜRZBURG, priority 2014, dated 2023)

Legend:
human Interleukin-5 = human Interleukin-5 (Homo sapiens, UniProt P05113); assay: Surface plasmon resonance control flow cell with human Interleukin-5; assay type: binding; settings: SPR, same coupling density
[1] = system: GDF-15 mediated AKT-phosphorylation in ovarian cancer cell line SK-OV-3; assay: Akt phosphorylation in SK-OV-3 cells (Western Blot); assay type: cell-based; settings: 2 μg antibody preincubated 5 minutes with 10 ng/ml GDF-15 at 37° C.
Procedure: FIG. 2: Akt Phosphorylation in the Ovarian Carcinoma Cell Line SK-OV-3. In order to quantify the Western Blot for the ovarian carcinoma cell line SK-OV-3, the ratio of phosphorylated Akt to the total amount of Akt was calculated and normalized to the untreated control.
b) The treatment of the ovarian cancer cell line SK-OV-3 with recombinant GDF-15 led to the phosphorylation of AKT. AKT is a molecule, which is part of the PI3K-pathway and contributes to the activation and proliferation of cells. In this experiment SK-OV-3 cells were treated with 10 ng/ml recombinant GDF-15 for 10 min at 37° C., 5% CO2. 5 minutes preincubation of 2 μg mAb-B1-23 with 10 ng/ml GDF-15 at 37° C. blocked the GDF-15 mediated AKT-phosphorylation (FIG. 2).

[2] = system: GDF-15 mediated JNK1/2-phosphorylation in immune cells; assay: JNK1/2 phosphorylation in immune cells (Western Blot); assay type: cell-based; settings: 2 μg antibody, 10 ng/ml GDF-15, 5 minute preincubation
Procedure: FIG. 3: JNK1/2 Phosphorylation in Immune Cells. In order to quantify the Western Blot, the ratio of phosphorylated JNK1/2 to the total amount of JNK was calculated and normalized to the untreated control.
c) Treatment of immune cells with recombinant. GDF-15 led to the phosphorylation of JNK, a kinase, which is activated either by cytokines or by stress. Antagonization of 10 ng/ml GDF-15 with 2 μg mAb-B1-23 (5 minute preincubation at 37°) blocked the GDF-15 mediated JNK1/2-phosphorylation (FIG. 3).

[3] = system: prostate cancer cell line LnCap; assay: Cancer cell proliferation, Alamar Blue metabolic assay; assay type: cell-based; settings: after 72 hrs, compared with control group without antibody
Source text: The strongest antiproliferative effect was observed using the prostate cancer cell line LnCap, which produces lots of GDF-15.

recombinant human GDF-15 = target: T1, recombinant human GDF-15 (Homo sapiens, UniProt Q99988); assay: Mass spectrometric epitope excision; assay type: binding; settings: trypsin 2 h at 37° C., MS/MS identification
T1 sequence (Q99988 with tags, fused parts or gaps): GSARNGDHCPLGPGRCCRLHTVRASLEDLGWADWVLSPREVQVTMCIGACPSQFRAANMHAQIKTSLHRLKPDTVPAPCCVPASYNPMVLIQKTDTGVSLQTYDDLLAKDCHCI
Procedure: The epitope of recombinant human GDF-15 which binds to the antibody B1-23 was identified by means of the epitope excision method and epitope extraction method (Suckau et al. Proc Nati Acad Sci USA. 1990 December; 87(24): 9848-9852; R. Stefanescu et al., Eur. J. Mass Spectrom. 13, 69-75 (2007)).
For preparation of the antibody column, the antibody B1-23 was added to NHS-activated 6-aminohexanoic acid coupled sepharose. The sepharose-coupled antibody B1-23 was then loaded into a 0.8 ml microcolumn and washed with blocking and washing buffers.
The immobilized antibody B1-23 on the affinity column was then incubated with recombinant GDF-15 for 2 h. The formed immune complex on the affinity column was then incubated with trypsin for 2 h at 37° C. […] The immobilized antibody itself is proteolytically stable. The resulting peptides of the digested GDF-15 protein, which were shielded by the antibody and thus protected from proteolytic cleavage, were eluted under acidic conditions (TFA, pH2), collected and identified by mass spectrometry.

[4] = Study No. 140123: body weight of UACC-257 inoculated mice (cancer-induced weight loss); assay type: in vivo, Balb/c^nu/nu mice; settings: 38 days
Procedure: FIG. 5: Treatment of cancer cachexia with anti-GDF-15 antibodies. […] The changes of the body weight are depicted in percent as compared to the starting body weight on day 0, for a period of 38 days.
(§1) Treatment of cancer-induced weight loss with anti-GDF-15 antibodies. In the underlying animal study No. 140123, 10 Balb/c^nu/nu mice per treatment group were subcutaneously inoculated with 10×10^6 UACC-257 cells per animal in a 1:1 volume ratio with matrigel (100 μl cells+100 μl matrigel). The animals were treated on the same day with the respective antibodies, as indicated below:
The study was carried out in a double-blinded manner for the treatment with the antibodies and for the treatment with PBS.

[5] = Study No. 140123: feed consumption of UACC-257 inoculated mice; assay type: in vivo, Balb/c^nu/nu mice
Procedure: as §1
In addition to evaluating the mean body weight of the mice, the feed consumption of the mice was evaluated by pairwise comparisons of the study groups (Table 1).

[6] = Gel electrophoresis and coomassie staining of antibodies used in study No. 140123; assay type: physicochemical
Procedure: FIG. 6: Coomassie stain of antibodies used in the study No. 140123.
The quality of the humanized anti-GDF-15 antibody B1-23-H1L5 used in the study was tested by using gel electrophoresis and coomassie staining of the antibodies (see FIG. 6).

hrGDF-15 = target: T2, hrGDF-15 (Homo sapiens, UniProt Q99988); assay: Colorimetric ELISA binding to coated hrGDF-15; settings: serial 1:3 dilution from 333 ng/ml; in comparison to B12
T2 sequence (Q99988 with tags, fused parts or gaps limits assumed): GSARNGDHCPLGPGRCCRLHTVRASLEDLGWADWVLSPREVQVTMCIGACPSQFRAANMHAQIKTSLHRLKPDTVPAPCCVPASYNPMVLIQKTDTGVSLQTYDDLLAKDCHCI
Procedure: Additionally, by using a colorimetric assay, it was confirmed that all anti-GDF-15 antibodies used in the study bound to GDF-15 in a concentration-dependent manner. To determine the binding of B1-23 antibody variants to GDF-15, a […] ELISA experiment was performed. […] Therefore, Maxisorp 96 well plates (Nunc) were coated with hrGDF-15 (25 ng protein per well, 50 μl volume) over night at 4° C. The following day, plates were washed to remove unbound protein (3 times with 150 μl of PBS 0.05% Tween®) and non-specific binding sites were blocked with 150 μl of PBS 1% BSA for 2 hours at room temperature. Again, plates were washed and different variants of B1-23 test antibodies were applied (50 μl volume). To inquire specificity of the antibody binding, endpoint dilution was performed starting from 333 ng/ml and 1:3 serial dilution. As background control, PBS 1% BSA was applied. Following binding for 1 hour at room temperature, wells were washed as described above. As secondary antibody HRP conjugated Anti-human IgG (Life technologies, 1:5000) was applied for 1 hour at room temperature. Wells were washed as described above to remove unbound secondary antibody. […] For analysis, optical density at 450 nm was quantified using the ELISA reader (Tecan Sunrise) and the corresponding Magellan software.

human Interleukin-5, sequence (P05113 20-134): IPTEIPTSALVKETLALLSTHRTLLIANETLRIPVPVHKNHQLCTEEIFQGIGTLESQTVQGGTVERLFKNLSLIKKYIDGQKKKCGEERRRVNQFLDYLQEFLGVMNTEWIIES

B1: mAb-B1-23: murine IgG2a (kappa) monoclonal anti-human GDF-15 antibody produced by hybridoma cell line B1-23, DSM ACC3142 (antibody, V domains shown)
VH: QVKLQQSGPGILQSSQTLSLTCSFSGFSLSTSGMGVSWIRQPSGKGLEWLAHIYWDDDKRYNPTLKSRLTISKDPSRNQVFLKITSVDTADTATYYCARSSYGAMDYWGQGTSVTVSS
VL: DIVLTQSPKFMSTSVGDRVSVTCKASQNVGTNVAWFLQKPGQSPKALIYSASYRYSGVPDRFTGSGSGTDFTLTISNVQSEDLAEYFCQQYNNFPYTFGGGTKLEIKRTVA
Q: With B1 as the molecule, how does the “binding to human interleukin-5” value (human Interleukin-5) read?
A: no binding

Q: And the “GDF-15 mediated AKT-phosphorylation” value [1]?
A: blocked

Q: And the “GDF-15 mediated JNK1/2-phosphorylation” value [2]?
A: blocked

Q: What about the decrease of proliferation [3] of the same molecule?
A: 30%

Q: And the “positions of GDF-15 peptides forming the immune complex (epitope)” value (recombinant human GDF-15)?
A: 40-55 ([…]) and 94-114 ([…])

Q: What about the “body weight change compared to day 0” value [4] of the same molecule?
A: increase in body weight

Q: What about the “Feed consumption per mouse and day” value ([5]; average over day 17-34 intervals, with standard deviation) of the same molecule?
A: 3.6 ± 0.2 g

Q: What about the “feed consumption compared with groups which did not receive the anti-GDF-15 antibodies” value ([5]; mouse, in vivo) of the same molecule?
A: significantly higher

Q: What about the “band appearance / aggregation in coomassie gel” value [6] of the same molecule?
A: less sharp and at a higher molecular weight

Q: What about the “binding to GDF-15 in ELISA” value (hrGDF-15) of the same molecule?
A: clearly concentration-dependent binding
